Positions of bridges follow the written chain, without caps; N, C: chain ends. Non-standard residues stand in square brackets, D forms with d. Groups on a side chain read outwards from the residue. *: point of attachment. Dip = N[C@H](C(=O)O)C(c1ccccc1)c1ccccc1; Palmitoyl = CCCCCCCCCCCCCCCC(=O)*; β3hF = N[C@H](CC(=O)O)Cc1ccccc1; Isovaleryl = CC(C)CC(=O)*; Orn = NCCC[C@H](N)C(=O)O; Dab = NCC[C@H](N)C(=O)O; Ahx = NCCCCCC(=O)O
T1: ferroportin endogenously expressed on T47D cells (HTB 133, ATCC) (human, UniProt Q9NP59 1-571)
T1 sequence (looked up): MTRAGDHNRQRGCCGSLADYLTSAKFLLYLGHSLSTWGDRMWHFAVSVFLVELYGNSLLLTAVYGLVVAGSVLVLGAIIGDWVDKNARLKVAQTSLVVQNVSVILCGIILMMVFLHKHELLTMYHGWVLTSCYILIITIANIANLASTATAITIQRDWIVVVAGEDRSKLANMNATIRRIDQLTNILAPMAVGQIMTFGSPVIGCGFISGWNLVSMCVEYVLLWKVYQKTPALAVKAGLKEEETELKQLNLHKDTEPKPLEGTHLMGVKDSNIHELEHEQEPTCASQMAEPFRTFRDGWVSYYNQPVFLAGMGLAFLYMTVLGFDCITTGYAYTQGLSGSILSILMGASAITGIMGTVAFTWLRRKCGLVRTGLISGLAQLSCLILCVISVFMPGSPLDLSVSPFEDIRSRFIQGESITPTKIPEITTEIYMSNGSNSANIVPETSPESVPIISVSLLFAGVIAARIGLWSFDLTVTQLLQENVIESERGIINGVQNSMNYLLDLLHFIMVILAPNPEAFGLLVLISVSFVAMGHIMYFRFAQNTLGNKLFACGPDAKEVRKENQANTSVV


Biological target: T1, ferroportin endogenously expressed on …
Assay: cell-based or functional assay

| Binder | T47D MSA IC50 [nM] |
| --- | --- |
| XETHXPXX (N-term Isovaleric Acid; Dpa4; Lys(Ahx_Palm)6; C-term N_Pentyl_Phe) [Isovaleric Acid-E-T-H-[Dpa]-P-[Lys(Ahx_Palm)]-N_Pentyl_Phe] | 12.7 |
| Isovaleryl-[Orn]TH[Dip]PAID[β3hF][Lys(Ahx_Palm)]R-NH2 (lactam (positions not given here); not fully specified (bridges)) [Isovaleric Acid-Orn-T-H-[Dpa]-P-A-I-D-[bhPhe]-[Lys(Ahx_Palm)]-R-NH2] | 35 |
| XETHXPAIXXXX (N-term Isovaleric Acid; Dpa4; 123 Triazole8; bhPhe9; Lys(Ahx_Palm)10; (D)Lys11; C-term NH2; cyclized A-123Triazole (side-chain C of alanine and C5 of triazole joined by a C-C bond)) [Isovaleric Acid-E-T-H-[Dpa]-P-A-I-[123 Triazole]-[bhPhe]-[Lys(Ahx_Palm)]-[(D)Lys]-NH2] | 10.8 |
| XXTHXPAIEXXR (N-term Isovaleric Acid; Dab1; Dpa4; bhPhe9; Lys(Ahx_Palm)10; C-term NH2; cyclized Dab-E (lactam)) [Isovaleric Acid-Dab-T-H-[Dpa]-P-A-I-E-[bhPhe]-[Lys(Ahx_Palm)]-R-NH2] | 5.53 |
| XETHXPXX (N-term Isovaleric Acid; Dpa4; Lys(bAla_Palm)6; C-term N_Butyl_Phe) [Isovaleric Acid-E-T-H-[Dpa]-P-[Lys(bAla_Palm-N_Butyl_Phe] | 46.1 |
| XETHXPXX (N-term Cyclohexanoic_Acid; Dpa4; Lys(Ahx_Palm)6; C-term N_Butyl_Phe) [Cyclohexanoic_Acid-E-T-H-[Dpa]-P-[Lys(Ahx_Palm)]-N_Butyl_Phe] | 54.3 |
| Isovaleryl-ETH[Dip]PAIKK([Ahx-Palmitoyl])-NH2 (lactam 1-8 (inferred)) [Isovaleric Acid-E-T-H-[Dpa]-P-A-I-K-[Lys(Ahx_Palm)]-NH2] | 10.6 |

Continued, values first:

| T47D MSA IC50 [nM] | Binder |
| --- | --- |
| 3.96 | Isovaleryl-KTH[Dip]PAID[β3hF]K([Ahx-Palmitoyl])R-NH2 (lactam 1-8; SMILES CCCCCCCCCCCCCCCC(=O)NCCCCCC(=O)NCCCC[C@H](NC(=O)C[C@H](Cc1ccccc1)NC(=O)[C@@H]1CC(=O)NCCCC[C@H](NC(=O)CC(C)C)C(=O)N[C@@H]([C@@H](C)O)C(=O)N[C@@H](Cc2c[nH]cn2)C(=O)N[C@@H](C(c2ccccc2)c2ccccc2)C(=O)N2CCC[C@H]2C(=O)N[C@@H](C)C(=O)N[C@@H]([C@@H](C)CC)C(=O)N1)C(=O)N[C@@H](CCCNC(=N)N)C(N)=O) [Isovaleric Acid-K-T-H-[Dpa]-P-A-I-D-[bhPhe]-[Lys(Ahx_Palm)]-R-NH2] |
| 31.2 | Isovaleryl-KTH[Dip]PAIEK([Ahx-Palmitoyl])-NH2 (lactam 1-8; SMILES CCCCCCCCCCCCCCCC(=O)NCCCCCC(=O)NCCCC[C@H](NC(=O)[C@@H]1CCC(=O)NCCCC[C@H](NC(=O)CC(C)C)C(=O)N[C@@H]([C@@H](C)O)C(=O)N[C@@H](Cc2c[nH]cn2)C(=O)N[C@@H](C(c2ccccc2)c2ccccc2)C(=O)N2CCC[C@H]2C(=O)N[C@@H](C)C(=O)N[C@@H]([C@@H](C)CC)C(=O)N1)C(N)=O) [Isovaleric Acid-K-T-H-[Dpa]-P-A-I-E-[Lys(Ahx_Palm)]-NH2] |
| 131 | Isovaleryl-[Dab]TH[Dip]PAID[β3hF]K([Ahx-Palmitoyl])R-NH2 (lactam 1-8; SMILES CCCCCCCCCCCCCCCC(=O)NCCCCCC(=O)NCCCC[C@H](NC(=O)C[C@H](Cc1ccccc1)NC(=O)[C@@H]1CC(=O)NCC[C@H](NC(=O)CC(C)C)C(=O)N[C@@H]([C@@H](C)O)C(=O)N[C@@H](Cc2c[nH]cn2)C(=O)N[C@@H](C(c2ccccc2)c2ccccc2)C(=O)N2CCC[C@H]2C(=O)N[C@@H](C)C(=O)N[C@@H]([C@@H](C)CC)C(=O)N1)C(=O)N[C@@H](CCCNC(=N)N)C(N)=O) [Isovaleric Acid-Dab-T-H-[Dpa]-P-A-I-D-[bhPhe]-[Lys(Ahx_Palm)]-R-NH2] |
| 3.53 | Isovaleryl-KTH[Dip]PAIE[β3hF]K([Ahx-Palmitoyl])-NH2 (lactam 1-8; SMILES CCCCCCCCCCCCCCCC(=O)NCCCCCC(=O)NCCCC[C@H](NC(=O)C[C@H](Cc1ccccc1)NC(=O)[C@@H]1CCC(=O)NCCCC[C@H](NC(=O)CC(C)C)C(=O)N[C@@H]([C@@H](C)O)C(=O)N[C@@H](Cc2c[nH]cn2)C(=O)N[C@@H](C(c2ccccc2)c2ccccc2)C(=O)N2CCC[C@H]2C(=O)N[C@@H](C)C(=O)N[C@@H]([C@@H](C)CC)C(=O)N1)C(N)=O) [Isovaleric Acid-K-T-H-[Dpa]-P-A-I-E-[bhPhe]-[Lys(Ahx_Palm)]-NH2] |
| 2.14 | Isovaleryl-ETH[Dip]PAIK[β3hF]K([Ahx-Palmitoyl])-NH2 (lactam 1-8) [Isovaleric Acid-E-T-H-[Dpa]-P-A-I-K-[bhPhe]-[Lys(Ahx_Palm)]-NH2] |
| 52.3 | XETHXPKXX (N-term Isovaleric Acid; Dpa4; bhPhe7; Lys(Ahx_Palm)8; C-term NH2; cyclized E-K (lactam)) [Isovaleric Acid-E-T-H-[Dpa]-P-K-[bhPhe]-[Lys(Ahx_Palm)]-NH2] |
| 144 | Isovaleryl-ETH[Dip]PKK([Ahx-Palmitoyl])-NH2 (lactam 1-6 (inferred)) [Isovaleric Acid-E-T-H-[Dpa]-P-K-[Lys(Ahx_Palm)]-NH2] |

From US20240066131A1 (Protagonist Therapeutics, Inc., priority 2020, published 2024)
